In the RNAGym collection of RNA variant scans (doi:10.7554/elife.90254):

B1: LINE1-full (parent)
chain: UACGUAGGUGGUUUUCCCCUGAUAGUGCUAAGGGGGCCUGGAAGUUUGGACUGGGCAGAGCUCAACACAGCGUGGCAAAGUGGCUGUGGCUAGACUGCCUCUCUGGAUUCCUCGUCACUCAGCAGGGCAUCUCUGAGAGAAAUGCC

Variants of: B1
Experiment: self-cleavage, relative activity (ratio to wild type); higher = more cleavage; in vitro, sequencing; the parent is a self-cleaving ribozyme

Point of comparison: U9C C56U, self-cleavage 0.37. Against it:
- A2G A43G — higher, 0.87
- A30G A77G — higher, 2.12
- U47A U87A — lower, 0.11
- C111U G114A — higher, 1.12
- A30G A65U — higher, 0.39
- U108A A138C — higher, 1.32
- A69G A77U — higher, 0.58
- U12A U112C — higher, 1.3
- A92G U134C — lower, 0
- C37G U52C — higher, 0.75
- A50G C95U — lower, 0.03
- U20C A65G — lower, 0.06
- U47C U52C — higher, 1.18
- U15A U46A — higher, 0.71
- U45A A94G — lower, 0.05
- U104A C116A — higher, 1.11
- U96A U112C — lower, 0.06
- U12G A124G — higher, 0.84
- G4A A65G — lower, 0
- U15C U102A — lower, 0.19
- U15C U102G — higher, 0.8
- G53A G88A — lower, 0.07
- A64G G106U — lower, 0.15
- U15C G93A — lower, 0.07
- U45A A136G — higher, 2
- U52C A67G — higher, 0.61
- G54U A129G — higher, 1.02
- U39A U112C — higher, 1.38
- U14C A59G — lower, 0.14
- C17U U47A — higher, 1.34
- G36A U102C — higher, 1.14
- A78G U87A — lower, 0.1
- U1C U81C — higher, 0.85
- U14C G35A — higher, 1.22
- U39G G74A — higher, 0.97
- G41A A124U — higher, 1.08
- U46C C103A — higher, 1.58
- U15C G34U — higher, 1.65
- U73G A77G — higher, 0.98
- A30G C84A — lower, 0.22
- A107G A140U — higher, 0.94
- G8A A43G — higher, 1.08
- U13A U100A — higher, 0.59
- U14C U85C — lower, 0.23
- U15C C101G — higher, 1.31
- U5C U45C — higher, 1.32
- U14A A94U — lower, 0.13
- G93A A140G — lower, 0.06
- A50U U87C — lower, 0.23
- A78G U85A — lower, 0.09
- G127A — higher, 1.16
- A50G U62A — lower, 0.09
- U46C — higher, 1.41
- U46A C51U — higher, 1.35
- U26C G35C — higher, 2.65
- U1C U115C — higher, 1.19
- G11U A59U — higher, 1.02
- A69G U73A — lower, 0.28
- U9G G93U — lower, 0.05
- A6G C101A — higher, 0.56
- A42G A59G — lower, 0.11
- G105A U134A — higher, 1.54
- A30U A140G — higher, 1.76
- A79G G80A — higher, 1.89
- A50G G89A — lower, 0.06
- U45G G55C — lower, 0.08
- U14C A138C — higher, 1.56
- G125U U143C — higher, 1.08
- C18U U85G — lower, 0.23
- C18U U85A — lower, 0.13
- G80A U102C — higher, 1.92
- U45C A94C — lower, 0.04
- G53U A64G — lower, 0.16
- A64U A69U — lower, 0.07
- A6U U87C — lower, 0.16
- U39A A140U — higher, 1.23
- U46C U91G — lower, 0.09
- U73A U143C — higher, 1.4
- U91C U104A — lower, 0.34
- U1C U39C — higher, 0.95
- U119C C123U — higher, 0.62
- A31G G32A — higher, 1.25
- U15A A67G — higher, 0.41
- A42U U130C — higher, 1.32
- U132G A138G — higher, 1.35
- A77G U108C — higher, 2.51
- C103A U130C — higher, 1.9
- G75C A77U — higher, 0.75
- U115C A129C — higher, 1.68
- A107G U143C — higher, 1.38
- U85A A117U — lower, 0.09
- C56U U132C — lower, 0.2
- U85C A92U — lower, 0
- A43G A121U — higher, 1.23
- A30G U46A — higher, 0.84
- A50G G122U — higher, 1.09
- C28A U39A — higher, 1.54
- G32U U73C — higher, 1.1
- A117C A138U — higher, 2.44
- C18A C37G — higher, 0.99
- U102A U143C — higher, 1.25
- U20C U143A — higher, 1.5
- G34A A43G — higher, 0.73
- U81A U87A — lower, 0.11
- U62C A77U — lower, 0.03
- U100C C146U — higher, 1.71
- A69G U143A — lower, 0.31
- U23C G34A — higher, 1.26
- C38A A69G — higher, 0.61
- A22U U104A — higher, 1.01
- U91G A121G — lower, 0.33
- U26G U39A — higher, 1.12
- A57U U91A — lower, 0.07
- C28A U85C — lower, 0.17
- U26C U130A — higher, 1.35
- A142G C145U — higher, 1.11
- U12C U47C — higher, 1.42
- G40A A140G — higher, 1.12
- U29C A136G — higher, 0.92
- U9A U73A — higher, 1.29
- C71U A140G — higher, 0.9
- A42G U47C — higher, 1.54
- A42G U47G — higher, 0.88
- U115C C128U — higher, 1.4
- U62C C98A — lower, 0.03
- A77U G89A — lower, 0.06
- U9C U134C — higher, 1.05
- G21A A140G — higher, 1.3
- A69U A124G — lower, 0.05
- U12C U45C — higher, 0.98
- C99U U115C — higher, 1.15
- U96A U102C — lower, 0.12
- C28U C123U — higher, 1.03
- C28G C98A — lower, 0.12
- A94G A121G — lower, 0.22
- U13C U143G — higher, 2.3
- U47A U109C — higher, 1.19
- U23C A142U — higher, 2.35
- U87C G137A — higher, 0.5
- U15A U26A — higher, 0.5
- U23C G48A — higher, 1.44
- G48A A124U — higher, 1.02
- U47C A65U — lower, 0.1
- G55C U73A — lower, 0.07
- U104C G125U — higher, 1.68
- G25A U47C — higher, 0.54
- C19U A121G — higher, 0.42
- U52A U132C — higher, 1.48
- G55A C110U — higher, 0.53
- A64C A69U — lower, 0.05
- A50U U119A — higher, 0.83
- A2G A138G — higher, 0.98
- U85A A138U — lower, 0.06
- A24G G32A — higher, 1.13
- U100C G127U — higher, 1.84
- A31U U104C — higher, 1.3
- A42U U134A — higher, 1.09
- C110U A141G — higher, 1.4
- A77G U104A — higher, 1.64
- U100C U112A — higher, 1.74
- A42U A107U — higher, 0.92
- U119C U132C — higher, 2.32
- A64C U112C — lower, 0.29
- U39C G75A — higher, 0.83
- U1C A30G — higher, 0.73
- U52C U115C — higher, 1.64
